Square brackets hold non-standard residues; d marks the D form. Ends that are not written are not given here. Aib = CC(C)(N)C(=O)O

The target in experiment [1] is human secretin receptor (hSCTR) (human, UniProt P47872 23-440). Nature of the experiment: cell-based or functional assay.
The target in experiment [2] is human GLP-1 receptor (hGLP1R) (human, UniProt P43220 24-463). Briefly: cell-based or functional assay.

Sequence of human secretin receptor (hSCTR) (P47872 23-440): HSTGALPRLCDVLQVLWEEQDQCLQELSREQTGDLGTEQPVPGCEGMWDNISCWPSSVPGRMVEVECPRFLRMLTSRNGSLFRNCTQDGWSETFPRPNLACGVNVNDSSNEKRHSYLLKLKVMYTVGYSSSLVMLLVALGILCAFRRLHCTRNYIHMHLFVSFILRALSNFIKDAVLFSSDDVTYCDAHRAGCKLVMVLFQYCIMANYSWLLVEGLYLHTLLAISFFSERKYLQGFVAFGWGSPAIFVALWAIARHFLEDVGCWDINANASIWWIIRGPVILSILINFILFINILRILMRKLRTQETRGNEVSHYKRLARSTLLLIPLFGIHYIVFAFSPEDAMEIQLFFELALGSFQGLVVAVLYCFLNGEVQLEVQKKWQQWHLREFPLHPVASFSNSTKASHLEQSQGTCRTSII

B1: SEQ ID NO: 125 (peptide)
peptide: H[Aib]EGTFTSDPS[Aib]LLEGAALQRFIQWLV-NH2
modifications: N-terminus assumed
SMILES: CC[C@H](C)[C@H](NC(=O)[C@H](Cc1ccccc1)NC(=O)[C@H](CCCNC(=N)N)NC(=O)[C@H](CCC(N)=O)NC(=O)[C@H](CC(C)C)NC(=O)[C@H](C)NC(=O)[C@H](C)NC(=O)CNC(=O)[C@H](CCC(=O)O)NC(=O)[C@H](CC(C)C)NC(=O)[C@H](CC(C)C)NC(=O)C(C)(C)NC(=O)[C@H](CO)NC(=O)[C@@H]1CCCN1C(=O)[C@H](CC(=O)O)NC(=O)[C@H](CO)NC(=O)[C@@H](NC(=O)[C@H](Cc1ccccc1)NC(=O)[C@@H](NC(=O)CNC(=O)[C@H](CCC(=O)O)NC(=O)C(C)(C)NC(=O)[C@@H](N)Cc1c[nH]cn1)[C@@H](C)O)[C@@H](C)O)C(=O)N[C@@H](CCC(N)=O)C(=O)N[C@@H](Cc1c[nH]c2ccccc12)C(=O)N[C@@H](CC(C)C)C(=O)N[C@H](C(N)=O)C(C)C
In the case of B1, the “pEC50 hSCTR” value in experiment [1] was 5 -log M. Further, in experiment [2], the “pEC50 hGLPR1” value was 8.4 -log M.

B2: SEQ ID NO: 124 (peptide)
peptide: H[Aib]EGTFTSDPSRLLEGAALQRFIQWLV-NH2
modifications: N-terminus assumed
SMILES: CC[C@H](C)[C@H](NC(=O)[C@H](Cc1ccccc1)NC(=O)[C@H](CCCNC(=N)N)NC(=O)[C@H](CCC(N)=O)NC(=O)[C@H](CC(C)C)NC(=O)[C@H](C)NC(=O)[C@H](C)NC(=O)CNC(=O)[C@H](CCC(=O)O)NC(=O)[C@H](CC(C)C)NC(=O)[C@H](CC(C)C)NC(=O)[C@H](CCCNC(=N)N)NC(=O)[C@H](CO)NC(=O)[C@@H]1CCCN1C(=O)[C@H](CC(=O)O)NC(=O)[C@H](CO)NC(=O)[C@@H](NC(=O)[C@H](Cc1ccccc1)NC(=O)[C@@H](NC(=O)CNC(=O)[C@H](CCC(=O)O)NC(=O)C(C)(C)NC(=O)[C@@H](N)Cc1c[nH]cn1)[C@@H](C)O)[C@@H](C)O)C(=O)N[C@@H](CCC(N)=O)C(=O)N[C@@H](Cc1c[nH]c2ccccc12)C(=O)N[C@@H](CC(C)C)C(=O)N[C@H](C(N)=O)C(C)C
For B2, in experiment [1], the “pEC50 hSCTR” value is 5.3 -log M. Also, in experiment [2], the “pEC50 hGLPR1” value is 8.6 -log M.

B3: SEQ ID NO: 127 (peptide)
peptide: H[Aib]EGTFTSDPSWLLEGAALQRFIQWLV-NH2
modifications: N-terminus assumed
SMILES: CC[C@H](C)[C@H](NC(=O)[C@H](Cc1ccccc1)NC(=O)[C@H](CCCNC(=N)N)NC(=O)[C@H](CCC(N)=O)NC(=O)[C@H](CC(C)C)NC(=O)[C@H](C)NC(=O)[C@H](C)NC(=O)CNC(=O)[C@H](CCC(=O)O)NC(=O)[C@H](CC(C)C)NC(=O)[C@H](CC(C)C)NC(=O)[C@H](Cc1c[nH]c2ccccc12)NC(=O)[C@H](CO)NC(=O)[C@@H]1CCCN1C(=O)[C@H](CC(=O)O)NC(=O)[C@H](CO)NC(=O)[C@@H](NC(=O)[C@H](Cc1ccccc1)NC(=O)[C@@H](NC(=O)CNC(=O)[C@H](CCC(=O)O)NC(=O)C(C)(C)NC(=O)[C@@H](N)Cc1c[nH]cn1)[C@@H](C)O)[C@@H](C)O)C(=O)N[C@@H](CCC(N)=O)C(=O)N[C@@H](Cc1c[nH]c2ccccc12)C(=O)N[C@@H](CC(C)C)C(=O)N[C@H](C(N)=O)C(C)C
For the molecule B3, the “pEC50 hSCTR” value in experiment [1] is 5.4 -log M. Besides, the “pEC50 hGLPR1” value in experiment [2] was 8.1 -log M.
Turning to H[Aib]EGTFTSDVSFLKE[Aib]AATQRFLEHLV-NH2 (not fully specified (residue 14)) [SEQ ID NO: 13], in experiment [1], the “pEC50 hSCTR” value was 6.5 -log M. Besides, the “pEC50 hGLPR1” value in experiment [2] is 10.5 -log M.

B4: SEQ ID NO: 126 (peptide)
peptide: H[Aib]EGTFTSDPSFLLEGAALQRFIQWLV-NH2
modifications: N-terminus assumed
SMILES: CC[C@H](C)[C@H](NC(=O)[C@H](Cc1ccccc1)NC(=O)[C@H](CCCNC(=N)N)NC(=O)[C@H](CCC(N)=O)NC(=O)[C@H](CC(C)C)NC(=O)[C@H](C)NC(=O)[C@H](C)NC(=O)CNC(=O)[C@H](CCC(=O)O)NC(=O)[C@H](CC(C)C)NC(=O)[C@H](CC(C)C)NC(=O)[C@H](Cc1ccccc1)NC(=O)[C@H](CO)NC(=O)[C@@H]1CCCN1C(=O)[C@H](CC(=O)O)NC(=O)[C@H](CO)NC(=O)[C@@H](NC(=O)[C@H](Cc1ccccc1)NC(=O)[C@@H](NC(=O)CNC(=O)[C@H](CCC(=O)O)NC(=O)C(C)(C)NC(=O)[C@@H](N)Cc1c[nH]cn1)[C@@H](C)O)[C@@H](C)O)C(=O)N[C@@H](CCC(N)=O)C(=O)N[C@@H](Cc1c[nH]c2ccccc12)C(=O)N[C@@H](CC(C)C)C(=O)N[C@H](C(N)=O)C(C)C
With B4, in experiment [1], the “pEC50 hSCTR” value is 5.7 -log M. The “pEC50 hGLPR1” value in experiment [2] is 8.1 -log M.
For the molecule H[Aib]EGTFTSDVSYLKEEA[Aib]LQRFLEFLV-NH2 (not fully specified (residue 14)) [SEQ ID NO: 133], the “pEC50 hSCTR” value in experiment [1] was 6.4 -log M. For the same molecule, the “pEC50 hGLPR1” value in experiment [2] is 10.8 -log M.

B5: SEQ ID NO: 123 (peptide)
peptide: H[Aib]EGTFTSDPSGLLEGAALQRFIQWLV-NH2
modifications: N-terminus assumed
SMILES: CC[C@H](C)[C@H](NC(=O)[C@H](Cc1ccccc1)NC(=O)[C@H](CCCNC(=N)N)NC(=O)[C@H](CCC(N)=O)NC(=O)[C@H](CC(C)C)NC(=O)[C@H](C)NC(=O)[C@H](C)NC(=O)CNC(=O)[C@H](CCC(=O)O)NC(=O)[C@H](CC(C)C)NC(=O)[C@H](CC(C)C)NC(=O)CNC(=O)[C@H](CO)NC(=O)[C@@H]1CCCN1C(=O)[C@H](CC(=O)O)NC(=O)[C@H](CO)NC(=O)[C@@H](NC(=O)[C@H](Cc1ccccc1)NC(=O)[C@@H](NC(=O)CNC(=O)[C@H](CCC(=O)O)NC(=O)C(C)(C)NC(=O)[C@@H](N)Cc1c[nH]cn1)[C@@H](C)O)[C@@H](C)O)C(=O)N[C@@H](CCC(N)=O)C(=O)N[C@@H](Cc1c[nH]c2ccccc12)C(=O)N[C@@H](CC(C)C)C(=O)N[C@H](C(N)=O)C(C)C
Consider B5, for which the “pEC50 hSCTR” value in experiment [1] was 5.2 -log M. Moreover, the “pEC50 hGLPR1” value in experiment [2] is 8 -log M.

B6: SEQ ID NO: 122 (peptide)
peptide: H[Aib]EGTFTSDPSELLEGAALQRFIQWLV-NH2
modifications: N-terminus assumed
SMILES: CC[C@H](C)[C@H](NC(=O)[C@H](Cc1ccccc1)NC(=O)[C@H](CCCNC(=N)N)NC(=O)[C@H](CCC(N)=O)NC(=O)[C@H](CC(C)C)NC(=O)[C@H](C)NC(=O)[C@H](C)NC(=O)CNC(=O)[C@H](CCC(=O)O)NC(=O)[C@H](CC(C)C)NC(=O)[C@H](CC(C)C)NC(=O)[C@H](CCC(=O)O)NC(=O)[C@H](CO)NC(=O)[C@@H]1CCCN1C(=O)[C@H](CC(=O)O)NC(=O)[C@H](CO)NC(=O)[C@@H](NC(=O)[C@H](Cc1ccccc1)NC(=O)[C@@H](NC(=O)CNC(=O)[C@H](CCC(=O)O)NC(=O)C(C)(C)NC(=O)[C@@H](N)Cc1c[nH]cn1)[C@@H](C)O)[C@@H](C)O)C(=O)N[C@@H](CCC(N)=O)C(=O)N[C@@H](Cc1c[nH]c2ccccc12)C(=O)N[C@@H](CC(C)C)C(=O)N[C@H](C(N)=O)C(C)C
B6: the “pEC50 hSCTR” value in experiment [1] was 5.3 -log M. In addition, the “pEC50 hGLPR1” value in experiment [2] was 8.2 -log M.
H[Aib]EGTFTSDVSYLKEEA[Aib]SQRFLEHLV-NH2 (not fully specified (residue 14)) [SEQ ID NO: 134]: the “pEC50 hSCTR” value in experiment [1] is 5.6 -log M. For the same molecule, the “pEC50 hGLPR1” value in experiment [2] is 11.1 -log M.

B7: SEQ ID NO: 128 (peptide)
peptide: H[Aib]EGTFTSDPSYLLEGAALQRFIQWLV-NH2
modifications: N-terminus assumed
SMILES: CC[C@H](C)[C@H](NC(=O)[C@H](Cc1ccccc1)NC(=O)[C@H](CCCNC(=N)N)NC(=O)[C@H](CCC(N)=O)NC(=O)[C@H](CC(C)C)NC(=O)[C@H](C)NC(=O)[C@H](C)NC(=O)CNC(=O)[C@H](CCC(=O)O)NC(=O)[C@H](CC(C)C)NC(=O)[C@H](CC(C)C)NC(=O)[C@H](Cc1ccc(O)cc1)NC(=O)[C@H](CO)NC(=O)[C@@H]1CCCN1C(=O)[C@H](CC(=O)O)NC(=O)[C@H](CO)NC(=O)[C@@H](NC(=O)[C@H](Cc1ccccc1)NC(=O)[C@@H](NC(=O)CNC(=O)[C@H](CCC(=O)O)NC(=O)C(C)(C)NC(=O)[C@@H](N)Cc1c[nH]cn1)[C@@H](C)O)[C@@H](C)O)C(=O)N[C@@H](CCC(N)=O)C(=O)N[C@@H](Cc1c[nH]c2ccccc12)C(=O)N[C@@H](CC(C)C)C(=O)N[C@H](C(N)=O)C(C)C
As for B7, the “pEC50 hSCTR” value in experiment [1] is 4.7 -log M. The “pEC50 hGLPR1” value in experiment [2] was 7.8 -log M.

B8: SEQ ID NO: 129 (peptide)
peptide: H[Aib]EGTFTSDPSVLLEGAALQRFIQWLV-NH2
modifications: N-terminus assumed
SMILES: CC[C@H](C)[C@H](NC(=O)[C@H](Cc1ccccc1)NC(=O)[C@H](CCCNC(=N)N)NC(=O)[C@H](CCC(N)=O)NC(=O)[C@H](CC(C)C)NC(=O)[C@H](C)NC(=O)[C@H](C)NC(=O)CNC(=O)[C@H](CCC(=O)O)NC(=O)[C@H](CC(C)C)NC(=O)[C@H](CC(C)C)NC(=O)[C@@H](NC(=O)[C@H](CO)NC(=O)[C@@H]1CCCN1C(=O)[C@H](CC(=O)O)NC(=O)[C@H](CO)NC(=O)[C@@H](NC(=O)[C@H](Cc1ccccc1)NC(=O)[C@@H](NC(=O)CNC(=O)[C@H](CCC(=O)O)NC(=O)C(C)(C)NC(=O)[C@@H](N)Cc1c[nH]cn1)[C@@H](C)O)[C@@H](C)O)C(C)C)C(=O)N[C@@H](CCC(N)=O)C(=O)N[C@@H](Cc1c[nH]c2ccccc12)C(=O)N[C@@H](CC(C)C)C(=O)N[C@H](C(N)=O)C(C)C
On to B8, for which, in experiment [1], the “pEC50 hSCTR” value was 5 -log M. For the same molecule, the “pEC50 hGLPR1” value in experiment [2] was 8.1 -log M.
Regarding H[Aib]EGTFTSDVSYLKEEA[Aib]NQRFLEHLV-NH2 (not fully specified (residue 14)) [SEQ ID NO: 131], the “pEC50 hSCTR” value in experiment [1] was 5.3 -log M. In addition, in experiment [2], the “pEC50 hGLPR1” value is 11.3 -log M.
The corresponding values for H[Aib]EGTFTSDVSYLWEEA[Aib]LQRFLEKLV-NH2 (not fully specified (residue 25)) [SEQ ID NO: 130] are 6 -log M and 10.5 -log M.
H[Aib]EGTFTSDVSYLKEEALLQRFLEHLV-NH2 (not fully specified (residue 14)) [SEQ ID NO: 132]: the “pEC50 hSCTR” value in experiment [1] was 6.7 -log M. Besides, the “pEC50 hGLPR1” value in experiment [2] was 10.7 -log M.
